Laboratory results: paper PMC9270183 (The Journal of Experimental Medicine, 2022)
Changes are numbered by the printed parent chain.

Molecular target: SARS-CoV-2 Wuhan-Hu-1 RBD (SARS-CoV-2 Wuhan-Hu-1, UniProt P0DTC2)
Experiment: BLI
Settings: both partners purified

B1: V056 (antibody, V domains shown)
VH: QVQLVESGGGVVQPGRSLRLSCAASGFPFSNYGMHWVRQAPGKGLEWVAVISYDGSNKYYADSVKGRFTISRDNSKNTLYLQMNSLRAEDTALYYCAKDSRPLPAAMSTYYYYGVDVWGQGTTVTVSS
VL: not shown
notes: IgG; donor BRA15; source: recombinant monoclonal IgG, produced and purified as previously described
Kd: 14.3 nM

B2: V060 (antibody, V domains shown)
VH: B1 VH with Q39R, S56L, S85R, L93V, L103V, A105G, V115M
VL: not shown
notes: as for B1
Kd: 20.6 nM

B3: V010 (antibody, V domains shown)
VH: QVQLQESGPGLVKPSETLSLTCTVSGGSISSYYWSWIRQPPGKGLEWIGYIYYNGSTNYNPSLKSRVTISLDTSKNQFSLKLSSVTAADTAVYYCASDYYDSSGYYYGFDYWGQGTLVTVSS
VL: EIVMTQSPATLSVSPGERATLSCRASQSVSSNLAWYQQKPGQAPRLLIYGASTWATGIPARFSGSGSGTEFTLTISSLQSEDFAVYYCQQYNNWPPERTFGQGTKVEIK
notes: IgG; donor BRA13; source: recombinant monoclonal IgG, produced and purified as previously described
Kd: 2.08 nM

B4: V013 (antibody, V domains shown)
VH: QVQLVESGGGVVQPGRSLRLSCAGSGFIFSSFAMHWVRQAPGKGLEWVAVVSYDGDNKYYADSVKGRFTISRDNSKNTLYLQMDSLRPEDTAVYFCGRDEAALWIQRWYREIDFWGQGTLVTVSS
VL: QSVLTQPPSVSGTPGQRVTISCSGSSSNTGRNPVTWYQQFPGSAPKLLISRNNQRPSGVPDRFSGSKSGTSASLAISGLQSEDEADYYCAAWDDNLNGQVFGGGTKVTVL
notes: as for B3
Kd: 128 nM

B5: V057 (antibody, V domains shown)
VH: EVQLVESGGGLVQPGRSLRLSCAASGFTFGDYAMHWVRQAPGKGLEWVSGISWNSGIIGQADSVKGRFTISRDNAKNSLYLQMNSLRVEDTALYYCAKGGGESVEVPADEKLDYWGQGTLVTVSS
VL: QSVLTQPPSVSGAPGQRVTISCTGSSSNIGAGYDVHWYQQLPGTAPKLLIYGNNNRPSGVPDRFSGSKSGTSASLAITGLQAEDEADYYCQSYDSSLSGSWVFGGGTKLTVL
notes: as for B1
Kd: 16.9 nM

B6: V011 (antibody, V domains shown)
VH: QVQLVQSGAEVKKPGASVKVSCKASGYIFTSYDINWVRQATGQGLEWMGWMNPNSGNTGYAQKFQGRVTMTRNTSISTAYMELSSLRSEDTAVYYCARASSSLTYYFDYWGQGTLVTVSS
VL: SYELTQPPSVSVAPGKTARITCGENNIGSKSVHWYQQKPGQAPVLVVYDDSDRPSGIPERFSGSNSGNTATLTISRVEAGDEADYYCQVWDSSSDPVVFGGGTKLTVL
notes: as for B3
Kd: 7.46 nM

B7: V002 (antibody, V domains shown)
VH: EVQLVESGGGLVQPGRSLRLSCAASGFTFDEYAMHWVRQAPGKGLEWVSGSSWNSGTIGYADSVKGRFTISRDNAKNSLYLQMNSLRAEDTALYYCAKSQGDYGGNSGAGYFQHWGQGTLVTVSS
VL: B6 VL with E24G, V44M, D95E, P96V, V97Y, G101T, L105V
notes: as for B3
Kd: 1170 nM

B8: V062 (antibody, V domains shown)
VH: QLQLQESGPGLVKPSETLSLTCTVSSGSISSSSYYWGWIRQPPGKGLEWIGSIYYSGSTYYNPSLKSRVTISVDTSKNQFSLKLSSVTAADTAVYYCARHWRENFAHAFDIWGQGTMVTVSS
VL: QSALTQPASVSGSPGQSITISCTGTSSDVGSYDLVSWFQQHPGKAPKLMIYEVTKRPSGVSNRFSGSKSGNTASLTISGLQAEDEADYYCCSYVGSSTYWVFGGGTKLTVL
notes: as for B1
Kd: 2.86 nM

B9: V047 (antibody, V domains shown)
VH: EVQLVESGGGLVQPGGSLRLSCAASGFTFSSYWMSWVRQAPGKGLEWVANIKQDGSEKYYVDSVKGRFTISRDNAKNSLYLQVNSLRAEDTAVYYCARGQSRQYSSSWYGPAPVVDYFDYWGQGTLVTVSS
VL: QSVLTQPPSASGTPGQRVTISCSGSSSNFGSNYVYWYQQLPGTAPKLLIYRNKQRPSGVPDRFSGSKSGTSASLAISGLRSEDEADYYCAAWDDSLSVLWVFGGGTKLTVL
notes: IgG; donor BRA15
binding result: no binding (tested: 100 µg/ml RBD)

B10: V061 (antibody, V domains shown)
VH: QVQLVQSGAEVKKPGTSVKVSCKASGYTFKNYGISWVRQAPGQGLEWMGWISAHNGNTNYAQRVQGRVTMTTDTSTSTAYMELRSLRSEDTAVYYCGRESGVASHPGDLDYWGQGTLVTVSS
VL: SYELTQPPSVSVSPGQTARITCSGDALPRQYAYWYQQKPGQAPVLLIYKDSERPSGIPERFSGSSSGTTVTLTISGVQAEDEADYYCQSADSSVVFGGGAKLTVL
notes: as for B1
Kd: 13.3 nM

B11: V022 (antibody, V domains shown)
VH: EVQLVESGGGLVKPGGSLRLSCAASGFTFSSYSMNWVRQAPGKGLEWVSSISSTNNYIYNADSVKGRFTISRDNAKNSLYLQMNSLRAEDTAVYYCARDPAGRYSYGLYYFYYMDVWGKGTTVTVSS
VL: QSALTQPASVSGSPGQSITISCTGTSSDVGGYNYVSWYQQRPGKAPKLMIYDVSNRPSGVSDRFSGSKSGNTASLTISGLQAEDEADYYCTSYTSSSSLYVFGTGTKVTVL
notes: as for B3
Kd: 13 nM

B12: V017 (antibody, V domains shown)
VH: EVQLVESGGGLVQPGGSLRLSCVASGFTFSTYSMNWVRQAPGKGLEWVSYISSSSSTIYYADSVKGRFTISRDNAKSSLYLQMNSLRAEDTAVYYCASGLCGGDCPLTCWGQGTLVTVSS
VL: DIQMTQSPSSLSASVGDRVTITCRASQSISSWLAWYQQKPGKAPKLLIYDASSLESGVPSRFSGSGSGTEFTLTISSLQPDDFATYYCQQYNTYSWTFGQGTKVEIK
notes: as for B3
Kd: 18.4 nM

B13: V064 (antibody, V domains shown)
VH: EVQLVESGGGLVQPGGSLRLSCAASGLTVSRNYMRWVRQAPGKGLEWVSLIYSGGSTFYGDSVKGRFTISRDNSKNTLYLQMNSLRAEDTAVYYCARDLVRDGMDVWGQGTTVTVSS
VL: EIVMTQSPATLSVSPGERATLSCRASQSVSSNLAWYQQKPGQAPRLLIYGASTRATGIPARFSGSGSGTEFTLTISSLQSEDFAVYYCQQYNNWTFGQGTKVEIK
notes: as for B1
Kd: 2.76 nM

B14: V014 (antibody, V domains shown)
VH: EVQLVESGGGLVQPGGSLRLSCAASGFTFSSYDMHWVRQATGKGLEWVSAIGTAGDTYYPGSVKGRFTISRENAKNSLYLQMNSLRAGDTAVYYCARGVITMVRGVIRDYYYYGMDVWGQGTTVTVSS
VL: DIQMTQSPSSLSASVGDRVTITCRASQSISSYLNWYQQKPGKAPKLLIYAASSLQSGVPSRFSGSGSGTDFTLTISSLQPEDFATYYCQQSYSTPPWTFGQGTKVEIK
notes: as for B3
Kd: 15.1 nM

B15: V028 (antibody, V domains shown)
VH: QVQLVESGGGVVQPGRSLRLSCAASGFTFSSYGMHWVRQAPGKGLEWVAVVSFDGSDKYYADSVKGRFTISRDNSKNTLYLQMNSLRAEDTALYYCAKGGYSYAYPRYYFDYWGQGTLVTVSS
VL: DIQMTQSPSSLSASVGDRVTITCQASQDISNYLNWYQQKPGKAPKLLIYDASNLETGVPSRFSGSGSGTDFTFTISSLQPEDIATYYCQQHDNLPITFGQGTRLEIK
notes: IgG; donor BRA14; source: recombinant monoclonal IgG, produced and purified as previously described
Kd: 19.8 nM

B16: V031 (antibody, V domains shown)
VH: B15 VH with V51I, F53Y, D57N, T69A, I70F, L93V
VL: B15 VL
notes: as for B15
Kd: 9.39 nM

B17: V019 (antibody, V domains shown)
VH: QVQLVQSGAEVKKPGSSVKVSCKASGGTFSTYTFSWVRQAPGQGLEWMGRIIPILGIANYAQKFQGRITITADKSTSTAYMELSSLRSEDTAVYYCAWGSYSYGYFVDIWGQGTMVTVSS
VL: DIVMTQTLLSLSVTPGQPASISCKSSQSLLHSDGKTYLYWYLQKPGQSPQLLIYEVSSRFSGVPDRFSGSGSGTDFTLKISRVEAEDVGVYYCMQGIQFHWTFGQGTKLEIK
notes: as for B3
Kd: 3.84 nM

B18: V009 (antibody, V domains shown)
VH: EVQLVQSGAEVKKPGESLKISCKGSGYRFTSYWIGWVRQMPGKGLEWMGIIYAGDSDTRYSPSFQGQVTISVDKSISTAYLQWSSLKASDTAMYYCATTMTTGYFDYWGQGTLVTVSS
VL: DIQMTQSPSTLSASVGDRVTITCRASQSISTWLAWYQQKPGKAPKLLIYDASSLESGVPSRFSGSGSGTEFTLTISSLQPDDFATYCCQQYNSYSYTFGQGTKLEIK
notes: as for B3
Kd: 3.22 nM

B19: V015 (antibody, V domains shown)
VH: EVQLVESGGGLVQPGGSLRLSCAASGFTFNSYWMSWVRQAPGKGLEWVANIKQDGSEKYYVDSVKGRFTISRDNAKNSLYLQMNSLRAEDTAVYYCARLPTYYSGFDYWGQGTLVTVSS
VL: NFMLTQPHSVSESPGKTVTISCTGSSGSIASNYVQWYQQRPGSAPTTVIYEDNQRPSGVPDRFSGSIDSSSNSASLTISGLKTEDEADYYCQSYDSTNRGVVFGGGTKLTVL
notes: as for B3
Kd: 15.8 nM

B20: V020 (antibody, V domains shown)
VH: QVQLVESGGGVVQPGRSLRLSCAASGFTFSSYGMHWVRQAPGKGLEWVAVISYDGSNKYYADSVKGRFTISRDNSKNTLYLQMNSLRAEDTAVYYCAKGGWFGELLRYFDYWGQGTLVTVSS
VL: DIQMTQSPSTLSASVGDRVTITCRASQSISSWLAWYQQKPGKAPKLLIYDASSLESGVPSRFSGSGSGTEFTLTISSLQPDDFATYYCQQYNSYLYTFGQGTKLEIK
notes: as for B3
Kd: 77.3 nM

B21: V026 (antibody, V domains shown)
VH: B20 VH with A24V, D54E, F102Y, E104S, L105P, L106T, R107Y
VL: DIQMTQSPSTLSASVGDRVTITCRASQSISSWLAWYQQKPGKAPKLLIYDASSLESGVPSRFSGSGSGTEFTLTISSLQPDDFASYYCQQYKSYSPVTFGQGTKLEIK
notes: as for B3
Kd: 10.7 nM

B22: V003 (antibody, V domains shown)
VH: EVQLVQSGAEVKKPGESLKISCLGSGYSFTSYWIGWVRQMPGKGLEWMGIIFPADSDTRYSPSFQGQVIISADKSISTAYLQWSSLKASDTAMYYCARLREFGDYYYYGMDVWGQGTTVTVSS
VL: DIQLTQSPSSLSASVGDRVTITCRASQGISSYLAWYQQKPGKAPKLLIYAASTLQSGVPSRFSGSGSGTDFTLTISSLQPEDFATYYCQQLNSYPDFGQGTKLEIK
notes: as for B3
Kd: 2980 nM

B23: V025 (antibody, V domains shown)
VH: QVQLVQSGAEVKKPGASVKVSCKASGYTFTSYGISWVRQAPGQGLEWMGWISVYNGKTNYAQKLQGRVTMTTDTSTSTAYMELRSLISDDTAVYYCARADRYNWDYGSSWGQGTLVTVSS
VL: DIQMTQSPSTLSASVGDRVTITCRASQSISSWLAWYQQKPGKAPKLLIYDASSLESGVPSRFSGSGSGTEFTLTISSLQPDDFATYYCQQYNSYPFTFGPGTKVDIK
notes: as for B3
Kd: 1.93 nM

B24: V063 (antibody, V domains shown)
VH: QVQLVESGGGVVQPGRSLRLSCAASGFPFSSFGMHWVRQAPGKGLEWVAVISSDGSNKYYADSVKGRFTISRDNSKNTLYLQMNSLRAEDTAVYYCAKEFTYVVVTAFWGTENFDIWGQGTMVTVSS
VL: DIQMTQSPSTLSASVGDRVTITCRASQSISSWLAWYQQKPGKAPNLLIYKASALESGVPSRFSGSGSGTEFTLTISSLQPDDFATYYCQQYNSYPITFGQGTRLEIK
notes: as for B1
Kd: 4.16 nM

B25: V016 (antibody, V domains shown)
VH: QVQLVESGGGVVQPGRSLRLSCAASGFTFSNYGMHWVRQAPGKGLEWVAVISYDGSNKYYADSVKGRFTISRDNSKNTLYLQMNSVRVEDTAVYYCAKGSFGYSYVHTYFDYWGQGTLVTVSS
VL: B24 VL with N45K, K50D, A53S, T72I, Y94P, P95M, I96Y, R103K
notes: as for B3
Kd: 5.84 nM
